Measured values taken from patent publication US10251926B2, “Extract from indigo naturalis and a process for preparing the same” (Galderma S.A., priority 2015, dated 2019).

Assays:
HaCaT = HaCaT proliferation, MTT assay; format: cell-based; details: Homo sapiens, 72 hours, unit nM
Protocol: HaCaT, a human epidermal keratinocyte line from The Second Military Medical University (SMMU), China, was cultured in DMEM containing 10% FBS.
HaCaT were seeded in 96-well plates at 4×10^4 cells/well overnight. Stausporine or test articles were then added into the culture and incubated at 37° C., 5% CO2 for 72 hours. After removal of the media, the cells in 96-well plates were exposed to 100 μL of MTT (0.5 mg/mL in DMEM containing 10% FBS per well and incubated for 3 hours at 37° C., 5% CO2. Subsequently, the supernatants were removed and 150 μL of DMSO were added to each well. The plate was incubated in the dark for 10 minutes and the absorbance at 492 nm was recorded immediately using Multiskan MK3microplate reader (Thermo Life Sciences, HK, China).
All IC50 values were determined by using Xlfit™ software (version 2.0) from ID
Background was defined in culture with cells treated with DMSO only and was subtracted for IC50 calculations.

ears of mice = experiment: Ear inflammation after intradermal injection of IL-22 (study 1, establishment of model); format: in vivo, BABL/c mice
Protocol: FIG. 3: Group and dosing for in vivo evaluation of extracts from Qingdai in IL-22 induced psoriasis model. Five studies were designed and outlined in study 1-5, respectively. In Study 1, 100 ng and 500 ng of IL-22 in 20 μL saline, i.d., were used for induction. In study 2-5, 500 ng of IL-22 in […], i.d., were used for induction.
FIG. 4: Figures illustrate ear inflammation after intradermal injection of IL-22. In the studies, ears of mice were injected intradermally and ear thickness was measured on days between injections.
BABL/c mice, male, body weight 19-22 g, purchased from Shanghai SLC AnimalCenter.
Intradermal injection of 20 μL PBS, either alone or containing 100 or 500 ng recombinant mouse IL-22 (eBiosience), was administered into the ears of anesthetized mice using a 30-gauge needle every other day for eleven days. Ear thicknesses were measured before injection on day 0 and thereafter on days without injections. Ear measurements were taken at the center of the ears using a digimatic micrometer caliper (Mitutoyo).
Results of ear thickness data were expressed as mean±S.E.M. AUC of ear swelling was calculated by the ear thickness data from day 0 to day 11, and analyzed by repeated-measured ANOVA methods with JMP® software. Cytokine protein and gene expression data were evaluated with a one-way ANOVA and followed by student's t-test for post-hoc analysis. […]

Molecule | IC50 (HaCaT) [nM] | ear thickness (d 15) (ears of mice; study 1, IL-22 100 ng in 20 μL saline i.d., day 15) [μm] | ear thickness (d 15) (ears of mice; study 1, IL-22 500 ng in 20 μL saline i.d., second value of the cell, day 15 as in the lines above) [μm]
CN[C@@H]1C[C@H]2O[C@@](C)([C@@H]1OC)n1c3ccccc3c3c4c(c5c6ccccc6n2c5c31)C(=O)NC4 [Staurosporine] | 3.18 | – | –
IL-22: Recombinant mouse IL-22, intradermal inducer of ear inflammation (protein, UniProt Q9JJY9 34-179, looked up) Interleukin-22: LPVNTRCKLEVSNFQQPYIVNRTFMLAKEASLADNNTDVRLIGEKLFRGVSAKDQCYLMKQVLNFTLEDVLLPQSDRFQPYMQEVVPFLTKLSNQLSSCHISGDDQNIQKNVRRLKETVKKLGESGEIKAIGELDLLFMSLRNACV | – | 255.3 ± 15.1 | 296.3 ± 5.0
